Laboratory results from patent US20090166224A1 (published 2009).

Legend:
Test in all cases: human serum on Con A/WGA/Jacalin column, lectin-specific displacer fraction, LC-MS/MS; grade = SEQUEST rank group (+ = ranks 1-5, ++++ = 16-20)
[1] = biological target: T1, IG ALPHA-1 CHAIN C REGION (human, UniProt P01876-1 1-353)
T1 construct: domain: C region; Polyclonal serum IgA, identified through its constant region; variable regions and light chains not defined; also called ALC1

[2] = biological target: T2, INTER-ALPHA-TRYPSIN INHIBITOR HEAVY CHAIN H1 (human, UniProt P19827 35-672)
T2 construct: from human serum; also called ITH1
T2 sequence (looked up): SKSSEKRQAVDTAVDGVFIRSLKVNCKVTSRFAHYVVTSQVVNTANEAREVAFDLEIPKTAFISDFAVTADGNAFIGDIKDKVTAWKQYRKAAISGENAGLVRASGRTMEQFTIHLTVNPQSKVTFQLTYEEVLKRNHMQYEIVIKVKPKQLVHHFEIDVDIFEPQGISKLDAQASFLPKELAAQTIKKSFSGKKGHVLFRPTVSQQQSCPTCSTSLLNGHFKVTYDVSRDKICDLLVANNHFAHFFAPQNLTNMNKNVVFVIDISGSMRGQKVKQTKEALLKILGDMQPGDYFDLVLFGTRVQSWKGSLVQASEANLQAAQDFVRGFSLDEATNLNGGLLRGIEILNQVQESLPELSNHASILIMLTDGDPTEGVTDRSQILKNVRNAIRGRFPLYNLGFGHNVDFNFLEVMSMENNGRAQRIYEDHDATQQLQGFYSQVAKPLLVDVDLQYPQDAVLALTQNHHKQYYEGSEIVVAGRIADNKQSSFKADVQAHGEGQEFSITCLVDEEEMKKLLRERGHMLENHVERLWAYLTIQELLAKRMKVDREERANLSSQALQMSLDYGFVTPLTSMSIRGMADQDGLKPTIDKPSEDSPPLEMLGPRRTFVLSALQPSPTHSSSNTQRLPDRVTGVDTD

[3] = biological target: T3, HAPTOGLOBIN-RELATED PROTEIN (human, UniProt P00739 1-348, limits assumed)
T3 construct: from human serum; also called HPTR
T3 sequence (looked up): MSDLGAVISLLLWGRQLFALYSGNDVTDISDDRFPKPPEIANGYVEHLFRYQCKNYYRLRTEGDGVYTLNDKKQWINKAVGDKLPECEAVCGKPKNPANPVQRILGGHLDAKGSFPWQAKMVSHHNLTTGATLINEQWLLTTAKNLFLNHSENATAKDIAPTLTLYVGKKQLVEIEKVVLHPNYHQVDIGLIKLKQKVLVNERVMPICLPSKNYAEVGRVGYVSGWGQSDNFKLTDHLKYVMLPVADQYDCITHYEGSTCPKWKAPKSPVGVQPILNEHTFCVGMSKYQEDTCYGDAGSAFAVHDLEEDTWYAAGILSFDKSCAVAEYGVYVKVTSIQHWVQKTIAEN

[4] = biological target: T4, CARBOXYPEPTIDASE N 83 KDA CHAIN (human, UniProt P22792 22-545)
T4 construct: from human serum; also called CBP8
T4 sequence (looked up): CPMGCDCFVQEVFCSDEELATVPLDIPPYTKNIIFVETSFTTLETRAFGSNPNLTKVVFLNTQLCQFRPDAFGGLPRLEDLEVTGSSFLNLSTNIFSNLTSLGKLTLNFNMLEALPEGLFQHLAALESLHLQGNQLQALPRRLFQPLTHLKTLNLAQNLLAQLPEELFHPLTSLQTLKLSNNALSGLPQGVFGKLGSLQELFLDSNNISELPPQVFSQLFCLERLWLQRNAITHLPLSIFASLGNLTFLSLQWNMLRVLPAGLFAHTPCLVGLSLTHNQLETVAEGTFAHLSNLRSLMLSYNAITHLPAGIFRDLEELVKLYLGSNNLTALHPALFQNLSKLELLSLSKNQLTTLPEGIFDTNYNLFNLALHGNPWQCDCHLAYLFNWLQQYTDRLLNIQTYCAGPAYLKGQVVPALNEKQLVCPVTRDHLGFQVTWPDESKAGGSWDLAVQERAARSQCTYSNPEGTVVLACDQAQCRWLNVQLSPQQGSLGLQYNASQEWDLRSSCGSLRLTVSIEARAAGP

HEMOPEXIN = biological target: T5, HEMOPEXIN (human, UniProt P02790 24-462)
T5 construct: from human serum
T5 sequence (looked up): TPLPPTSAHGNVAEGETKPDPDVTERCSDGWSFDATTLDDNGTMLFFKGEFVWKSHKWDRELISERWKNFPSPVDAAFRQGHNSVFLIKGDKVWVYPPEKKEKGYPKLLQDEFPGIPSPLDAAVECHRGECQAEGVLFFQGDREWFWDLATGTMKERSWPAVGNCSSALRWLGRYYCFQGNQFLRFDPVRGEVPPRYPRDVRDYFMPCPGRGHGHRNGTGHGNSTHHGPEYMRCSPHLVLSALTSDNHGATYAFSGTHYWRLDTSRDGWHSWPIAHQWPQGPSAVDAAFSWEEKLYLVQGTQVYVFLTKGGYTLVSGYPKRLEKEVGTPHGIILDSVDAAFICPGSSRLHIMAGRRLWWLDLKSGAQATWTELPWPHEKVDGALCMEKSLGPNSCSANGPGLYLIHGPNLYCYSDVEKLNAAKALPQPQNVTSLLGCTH

T1 sequence (P01876 other isoform, or with tags, fused parts or gaps limits assumed): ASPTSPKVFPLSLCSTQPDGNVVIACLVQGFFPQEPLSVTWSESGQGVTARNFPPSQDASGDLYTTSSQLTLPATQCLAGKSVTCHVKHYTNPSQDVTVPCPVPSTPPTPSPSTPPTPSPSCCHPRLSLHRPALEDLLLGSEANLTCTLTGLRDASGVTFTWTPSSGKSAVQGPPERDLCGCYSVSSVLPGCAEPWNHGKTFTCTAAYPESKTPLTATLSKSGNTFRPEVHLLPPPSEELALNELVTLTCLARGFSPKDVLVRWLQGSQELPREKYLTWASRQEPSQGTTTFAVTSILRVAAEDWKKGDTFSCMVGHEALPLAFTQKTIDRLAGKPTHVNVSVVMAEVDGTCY

B1: wheat germ agglutinin (WGA), agarose-bound (other, UniProt P10968 27-197, looked up)
chain: QRCGEQGSNMECPNNLCCSQYGYCGMGGDYCGKGCQNGACWTSKRCGSQAGGATCTNNQCCSQYGYCGFGAEYCGAGCQGGPCRADIKCGSQAGGKLCPNNLCCSQWGFCGLGSEFCGGGCQSGACSTDKPCGKDAGGRVCTNNYCCSKWGSCGIGPGYCGAGCQSGGCDG
modifications: immobilized on agarose
notes: Lectin; released with N-acetyl-glucosamine; Coated on the plate in the lectin ELISA
Question: What does the source list for B1?
Answer: SEQUEST ranking (relative abundance in the WGA displacement fraction) [1]: 1 to 5 rank; SEQUEST ranking (relative abundance in the WGA displacement fraction) [2]: 11 to 15 rank; SEQUEST ranking (relative abundance in the WGA displacement fraction) [3]: 1 to 5 rank; SEQUEST ranking (relative abundance in the WGA displacement fraction) [4]: 6 to 10 rank; SEQUEST ranking (relative abundance in the WGA displacement fraction) (HEMOPEXIN): 1 to 5 rank
